Patent US20230250176A1 (DRAGONFLY THERAPEUTICS, published 2023)

T1: human NKG2D on cells (human, UniProt P26718 1-216)
T1 construct: whole, on cells; also called NKG2D on KHYG-1 parental cells; NKG2D on CD8+ T cells and NK cells
T1 sequence (looked up): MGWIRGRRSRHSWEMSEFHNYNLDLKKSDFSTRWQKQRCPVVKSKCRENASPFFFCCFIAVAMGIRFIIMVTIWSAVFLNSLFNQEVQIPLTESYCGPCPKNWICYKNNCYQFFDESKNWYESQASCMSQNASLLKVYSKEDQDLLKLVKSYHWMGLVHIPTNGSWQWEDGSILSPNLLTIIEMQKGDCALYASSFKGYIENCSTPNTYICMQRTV


Legend:
[1] = biological target: T2, mouse Tyrp1 on B16F10 and CT26-Tyrp1 cells (mouse, UniProt P07147 25-537); assay: flow cytometry on CT26-Tyrp1 cells, anti-mouse IgG-Fc secondary, MFI minus background, 4-parameter fit
T2 construct: whole, on cells

[2] = biological target: T2, mouse Tyrp1 on B16F10 and CT26-Tyrp1 …; assay: flow cytometry on B16F10 cells, anti-mouse IgG-Fc secondary, MFI minus background, 4-parameter fit
[3] = biological target: purified recombinant mouse EGFR (mouse, UniProt Q01279 25-647, limits assumed); assay: SPR (Biacore 8K), 37 C
Method: (§1) Measurements were performed at physiological temperature of 37° C. using a Biacore8K SPR system.

[4] = biological target: purified recombinant rat EGFR (rat, UniProt A0ABK0LZB0 35-651); assay: SPR (Biacore 8K), 37 C
Method: as §1

human NKG2D on cells = biological target: T1, human NKG2D on cells; assay: flow cytometry, AF647-conjugated test article on KHYG-1 parental cells (NKG2D+, CD16a-)

EC50 [1] [µM] | EC50 [2] [µM] | binding result [3] | binding result [4] | binding result (human NKG2D on cells) | Binder
0.0146 | 0.011 |  |  |  | TA99 (antibody, V domains shown) VH: EVQLQQSGAELVRPGALVKLSCKTSGFNIKDYFLHWVRQRPDQGLEWIGWINPDNGNTVYDPKFQGTASLTADTSSNTVYLQLSGLTSEDTAVYFCTRRDYTYEKAALDYWGQGASVIVSS VL: DIQMSQSPASLSASVGETVTITCRASGNIYNYLAWYQQKQGKSPHLLVYDAKTLADGVPSRFSGSGSGTQYSLKISSLQTEDSGNYYCQHFWSLPFTFGSGTKLEIK
 |  | no binding | no binding | no binding (tested: 800 nM) | panitumumab (antibody, IgG2, V domains shown) VH: QVQLQESGPGLVKPSETLSLTCTVSGGSVSSGDYYWTWIRQSPGKGLEWIGHIYYSGNTNYNPSLKSRLTISIDTSKTQFSLKLSSVTAADTAIYYCVRDRVTGAFDIWGQGTMVTVSS VL: DIQMTQSPSSLSASVGDRVTITCQASQDISNYLNWYQQKPGKAPKLLIYDASNLETGVPSRFSGSGSGTDFTFTISSLQPEDIATYFCQHFDHLPLAFGGGTKVEIK
